T1: human NPR1 on HEK293/hNPR1.myc.DDK cells (0 hANP) (human, UniProt P16066 33-1061)
T1 sequence: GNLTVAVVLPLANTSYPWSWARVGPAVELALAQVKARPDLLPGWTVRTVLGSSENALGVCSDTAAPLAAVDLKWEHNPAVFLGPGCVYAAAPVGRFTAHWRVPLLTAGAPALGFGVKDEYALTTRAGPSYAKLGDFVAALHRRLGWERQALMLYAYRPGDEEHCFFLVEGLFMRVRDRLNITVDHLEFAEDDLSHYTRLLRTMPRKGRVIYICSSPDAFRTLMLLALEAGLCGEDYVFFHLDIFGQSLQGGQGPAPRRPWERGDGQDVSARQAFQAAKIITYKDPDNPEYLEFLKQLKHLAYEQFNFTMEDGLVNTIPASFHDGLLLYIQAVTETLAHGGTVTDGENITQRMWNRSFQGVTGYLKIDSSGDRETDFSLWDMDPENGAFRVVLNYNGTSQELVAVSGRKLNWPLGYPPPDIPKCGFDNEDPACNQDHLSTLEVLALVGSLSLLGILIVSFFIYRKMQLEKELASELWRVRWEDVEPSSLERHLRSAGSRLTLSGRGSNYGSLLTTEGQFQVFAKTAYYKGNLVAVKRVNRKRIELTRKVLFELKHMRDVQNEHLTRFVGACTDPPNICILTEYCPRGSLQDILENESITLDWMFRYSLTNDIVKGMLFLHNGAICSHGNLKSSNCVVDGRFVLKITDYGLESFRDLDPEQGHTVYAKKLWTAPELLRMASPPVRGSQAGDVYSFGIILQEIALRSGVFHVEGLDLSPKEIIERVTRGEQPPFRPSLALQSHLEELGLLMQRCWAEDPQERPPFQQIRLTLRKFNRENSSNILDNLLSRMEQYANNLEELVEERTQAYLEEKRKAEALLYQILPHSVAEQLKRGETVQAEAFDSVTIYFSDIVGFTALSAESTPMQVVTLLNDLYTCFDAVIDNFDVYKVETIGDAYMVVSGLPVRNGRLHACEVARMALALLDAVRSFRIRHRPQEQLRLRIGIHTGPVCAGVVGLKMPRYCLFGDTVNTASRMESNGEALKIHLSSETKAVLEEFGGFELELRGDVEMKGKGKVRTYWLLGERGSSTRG

T2: human NPR1 on HEK293/hNPR1.myc.DDK cells with 10 nM hANP (NPR1-ANP complex) (human, UniProt P01160 124-151)
T2 construct: also called NPR1-ANP Complex on the Cell Surface
T2 sequence: T1 sequence
T2 sequence (peptide): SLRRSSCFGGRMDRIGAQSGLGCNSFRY

T3: mNPR1-mFc (mouse)
T3 construct: also called mouse NPR1 extracellular domain expressed with a C-terminal mouse IgG2a
T3 chain: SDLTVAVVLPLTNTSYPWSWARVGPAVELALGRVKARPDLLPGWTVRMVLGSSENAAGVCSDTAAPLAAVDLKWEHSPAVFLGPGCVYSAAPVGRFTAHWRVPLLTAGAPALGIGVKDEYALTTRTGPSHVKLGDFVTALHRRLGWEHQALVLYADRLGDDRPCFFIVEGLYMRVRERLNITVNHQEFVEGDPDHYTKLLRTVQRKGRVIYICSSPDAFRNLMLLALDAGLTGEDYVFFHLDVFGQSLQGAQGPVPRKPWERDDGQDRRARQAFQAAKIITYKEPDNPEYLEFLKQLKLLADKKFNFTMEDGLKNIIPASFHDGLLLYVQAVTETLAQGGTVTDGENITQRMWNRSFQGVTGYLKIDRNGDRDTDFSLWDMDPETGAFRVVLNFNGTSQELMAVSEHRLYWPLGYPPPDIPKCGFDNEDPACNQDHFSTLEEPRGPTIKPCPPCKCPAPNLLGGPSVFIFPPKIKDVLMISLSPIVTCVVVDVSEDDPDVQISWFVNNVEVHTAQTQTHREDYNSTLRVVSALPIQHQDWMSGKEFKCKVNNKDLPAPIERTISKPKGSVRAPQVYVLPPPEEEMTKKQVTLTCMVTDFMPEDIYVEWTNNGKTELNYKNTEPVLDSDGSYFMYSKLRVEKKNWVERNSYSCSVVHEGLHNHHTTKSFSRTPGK

T4: mouse NPR1 extracellular domain expressed with a C-terminal mouse IgG2a (mNPR1-mFc) (mouse)
T4 chain: T3 chain

T5: monkey NPR1 extracellular domain expressed with a C-terminal myc-myc-hexahistidine (mfNPR1-MMH) (monkey, UniProt P16066 33-473 (human entry))
T5 construct: also called monomeric monkey NPR1
T5 chain: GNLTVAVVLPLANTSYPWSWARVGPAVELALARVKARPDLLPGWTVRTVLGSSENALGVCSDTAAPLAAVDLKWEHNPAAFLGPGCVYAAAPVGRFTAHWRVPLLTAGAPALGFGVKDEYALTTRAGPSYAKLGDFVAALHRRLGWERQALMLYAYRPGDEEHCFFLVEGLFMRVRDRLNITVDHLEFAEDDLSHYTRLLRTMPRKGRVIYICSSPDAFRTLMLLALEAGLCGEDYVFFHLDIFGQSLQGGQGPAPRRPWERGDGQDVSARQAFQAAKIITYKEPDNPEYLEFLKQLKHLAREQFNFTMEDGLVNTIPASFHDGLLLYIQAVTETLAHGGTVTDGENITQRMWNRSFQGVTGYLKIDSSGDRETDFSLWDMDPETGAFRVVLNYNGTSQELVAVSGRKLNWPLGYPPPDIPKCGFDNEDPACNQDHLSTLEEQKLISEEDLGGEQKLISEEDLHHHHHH

T6: human NPR1 extracellular domain expressed with a C-terminal mouse IgG2a (hNPR1-mFc) (human)
T6 construct: also called hNPR1-Fc; human NPR1 dimer
T6 chain: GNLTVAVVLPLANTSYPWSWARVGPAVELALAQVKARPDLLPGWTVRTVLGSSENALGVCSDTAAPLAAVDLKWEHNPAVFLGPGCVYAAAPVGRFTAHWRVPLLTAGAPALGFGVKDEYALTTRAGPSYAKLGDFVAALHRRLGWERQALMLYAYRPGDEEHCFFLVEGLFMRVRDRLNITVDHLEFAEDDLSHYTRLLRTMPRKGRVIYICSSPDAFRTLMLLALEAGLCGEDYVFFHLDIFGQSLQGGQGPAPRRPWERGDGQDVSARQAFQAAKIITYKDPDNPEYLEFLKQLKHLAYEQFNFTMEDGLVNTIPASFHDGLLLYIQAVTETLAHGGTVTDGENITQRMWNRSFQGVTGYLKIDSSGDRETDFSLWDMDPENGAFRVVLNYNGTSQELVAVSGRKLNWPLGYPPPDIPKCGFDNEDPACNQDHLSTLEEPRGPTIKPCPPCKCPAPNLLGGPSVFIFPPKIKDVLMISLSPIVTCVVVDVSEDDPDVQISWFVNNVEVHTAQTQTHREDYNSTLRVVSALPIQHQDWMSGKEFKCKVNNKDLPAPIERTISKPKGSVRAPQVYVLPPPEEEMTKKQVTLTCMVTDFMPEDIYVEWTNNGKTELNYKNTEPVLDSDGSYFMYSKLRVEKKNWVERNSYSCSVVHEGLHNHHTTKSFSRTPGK

B1: mAb25508 (antibody, human IgG4, V domains shown)
VH: EVQLVESGGGVVRPGGSLRLSCAASGFNVDDYGMSWVRQIPGKGLEWISGINWNGGRIYYADSMKGRITISRDNAKNSLYLQMNSLRAEDTALYHCVRDQWLVRGLDYWGQGTLVTVSS
VL: DIQMTQSPSSLSASVGDRVTITCRASQGIYNYLAWFQQKPGKAPKSLIYAASSLQSGVPSKFSGSGSGTDFTLTISSLQPEDFATYYCQQYNTYPYTFGQGTKLEIK
B2: mAb25545 (antibody, V domains shown)
VH: QVQLVESGGGLVKPGGSLRLSCAASGFTFSDYHLSWIRQAPGKGLEWVSYIRSSGRTIDYAASVKGRFTISRDNAKNSLYLQMNSLRVEDTAVYYCARENWIVLKVYAGIVGAPLDQWGQGTLVTVSS
VL: not shown

Experiments:
[1] = biological target: T1, human NPR1 on HEK293/hNPR1.myc.DDK …; assay: cell-based or functional assay
[2] = biological target: T1, human NPR1 on HEK293/hNPR1.myc.DDK …; assay: ECL cell binding (MSD), 0 hANP
Method: (§1) All cells were washed once with 1×PBS with Ca²⁺/Mg²⁺ and counted with a Cellometer™ Auto T4 cell counter (Nexcelom Bioscience). Approximately 2.0×10⁴ HEK293/hNPR1.myc.DDK or HEK293 cells were seeded separately onto 96-well carbon electrode plates (MULTI-ARRAY high bind plate, Meso Scale Discovery (MSD, Rockville, MD)) and incubated for 1 hour (h) at 37° C. Nonspecific binding sites were blocked by 2% BSA (w/v) in 1×PBS with Ca²⁺/Mg²⁺for 1 h at room temperature (RT). HEK293/hNPR1.myc. […] The plate-bound antibodies were detected with SULFO-TAG™-conjugated goat polyclonal anti-human IgG antibody specific for heavy and light chains (Jackson Immunoresearch, West Grove, PA) for 1 h, RT.
(§2) After washes, plates were developed with Read Buffer (MSD, Rockville, MD) according to manufacturer's recommended procedure and luminescent signals were recorded with a SECTOR Imager 600 (MSD, Rockville, MD). Luminescence intensity, measured in relative light units (RLU), was recorded to indicate the binding intensity of each antibody at the range of concentrations.
(§3) In addition, direct binding signals (RLU) were analyzed as a function of the antibody concentration and data were fitted with a sigmoidal (four-parameter logistic) dose-response model using R statistical package (open source).

[3] = biological target: T2, human NPR1 on HEK293/hNPR1.myc.DDK …; assay: ECL cell binding (MSD), +10 nM hANP
Method: as §1, §2, §3

[4] = biological target: T7, mfNPR1-mFc:hBNP complex (monkey; human, UniProt P16860 103-134); assay: SPR Biacore, mAb captured by anti-human Fc, 37C
T7 construct: Receptor-Fc pre-complexed with 10-fold hBNP
Method: (§4) Equilibrium dissociation constant (KD) for different NPR1 reagents binding to purified anti-NPR1 monoclonal antibodies (mAbs) were determined using a real-time surface plasmon resonance based Biacore 4000 biosensor. All binding studies were performed in 10 mM HEPES, 150 mM NaCl, 3 mM EDTA, and 0.05% v/v Surfactant Tween-20, pH 7.4 (HBS-ET) running buffer at 25° C. and 37° C. The Biacore CM5 sensor chip surface was first derivatized by amine coupling with either mouse anti-human Fc specific mAb (GE Healthcare, #BR100839) or goat anti-human Fcy specific polyclonal antibody (Jackson ImmunoResearch Laboratories, #BR-1008-39) to capture anti-NPR1 mAbs.

[5] = biological target: T3, mNPR1-mFc; assay: SPR Biacore, mAb captured by anti-human Fc, 37C
Method: as §4

[6] = biological target: T3, mNPR1-mFc; assay: SPR Biacore, mAb captured by anti-human Fc, 25C
Method: as §4

[7] = biological target: T4, mouse NPR1 extracellular domain …; assay: SPR, Tables 21 to 26
Method: as §4

[8] = biological target: T5, monkey NPR1 extracellular domain …; assay: SPR, mAb captured, 25 C
Method: as §4

[9] = biological target: T8, mouse NPR1 extracellular domain expressed with a C-terminal myc-myc-hexahistidine (mNPR1-MMH) (mouse, UniProt P18293 29-469); assay: SPR, mAb captured, 25 C
Method: as §4

[10] = biological target: T6, human NPR1 extracellular domain …; assay: SPR, mAb captured, 25 C
Method: as §4

[11] = biological target: T5, monkey NPR1 extracellular domain …; assay: SPR, mAb captured, 37 C
Method: as §4

[12] = biological target: T8, mouse NPR1 extracellular domain …; assay: SPR, mAb captured, 37 C
Method: as §4

[13] = biological target: T6, human NPR1 extracellular domain …; assay: SPR, mAb captured, 37 C
Method: as §4

Binder	% Activation (vs ANP max), Expt 1 [1]	EC50 (nM), calcium flux, Expt 1 [1]	Ratio at 3.7 nM Ab concentration of Cell Binding Signal (RLU) to HEK293/hNPR1.myc.DKK relative to parental HEK293 [2]	EC50 [3]	Ratio at 3.7 nM Ab concentration of Cell Binding Signal (RLU) to HEK293/hNPR1.myc.DKK relative to parental HEK293 [3]	100 nM Ag Bound (RU) [4]	Kd [4]	koff [4]	kon [4]	t½ [4]	100 nM Ag Bound (RU) [5]	100 nM Ag Bound (RU) [6]	binding result [7]	100 nM Ag Bound (RU) [8]	100 nM Ag Bound (RU) [9]	binding result [9]	100 nM Ag Bound (RU) [10]	100 nM Ag Bound (RU) [11]	100 nM Ag Bound (RU) [12]	100 nM Ag Bound (RU) [13]
B1	56.1%	326 nM	18 ratio	1.3 nM	35 ratio	266 RU	0.354 nM	0.00015 s⁻¹	423000 M⁻¹ s⁻¹	1.28 h	0 RU	-1 RU	–	–	–	–	–	–	–	–
B2	–	–	–	–	–	–	–	–	–	–	–	–	no binding	4 RU	0 RU	no binding (tested: 100 nM)	7 RU	10 RU	1 RU	15 RU

Reference: patent publication US20240309103A1 (Regeneron, published 2024)
